Experimental data from paper PMC5815136.
Numbering of substitutions follows the chain as printed.

T1: Ct_Rio2 K106A (Chaetomium thermophilum? (given only as …, UniProt L0BC08 1-396, K106A))
T1 sequence: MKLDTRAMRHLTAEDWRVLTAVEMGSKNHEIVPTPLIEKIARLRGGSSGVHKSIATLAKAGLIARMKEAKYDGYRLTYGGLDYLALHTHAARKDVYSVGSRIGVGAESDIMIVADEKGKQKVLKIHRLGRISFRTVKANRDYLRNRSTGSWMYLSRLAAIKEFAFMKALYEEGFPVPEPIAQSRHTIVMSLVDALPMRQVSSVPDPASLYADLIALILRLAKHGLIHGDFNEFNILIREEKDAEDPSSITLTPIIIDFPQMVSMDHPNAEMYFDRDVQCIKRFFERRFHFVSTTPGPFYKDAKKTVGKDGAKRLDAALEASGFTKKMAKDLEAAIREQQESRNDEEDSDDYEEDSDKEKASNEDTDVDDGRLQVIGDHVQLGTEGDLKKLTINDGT

T2: Ct_Rio2 (Chaetomium thermophilum? (given only as …, UniProt L0BC08 1-396))
T2 sequence: T1 sequence with A106K


How the values were obtained:
Ct_Rio2 K106A = biological target: T1, Ct_Rio2 K106A; test: EMSA
Ct_Rio2 = biological target: T2, Ct_Rio2; test: EMSA

| Binder | binding result (Ct_Rio2 K106A) | binding result (Ct_Rio2) |
| --- | --- | --- |
| GGGUUAAUUUGACUCAACACAAAGAAA (structured_RNA) [h31* (h31-Stab)] | binds | binds |
| GGGUUAAUUUGACUCAACACGGGGAAA (structured_RNA) [h31] |  | binds |
